Data published in patent US20140087995A1 (published 2014).
Numbered stars: 1 amine (or outer) side, 2 acyl side, 3 side chain; on linkers, the order of the positions; unused ones are H or OH. Bridge positions count the residues as written; N and C are the ends. Side chains are listed from the residue outwards. Ends that are not written are not given here. * marks the point of attachment. C20 diacid = O=C(O)CCCCCCCCCCCCCCCCCCC(=O)*; γGlu = O=C(O)[C@H](CCC(=O)[*:2])N[*:1]

T1: human amylin receptor (amylin 3(a) receptor: human calcitonin receptor coexpressed with RAMP-3) (human, UniProt P30988 25-474; O60896 24-148)
T1 sequence (looked up) 1: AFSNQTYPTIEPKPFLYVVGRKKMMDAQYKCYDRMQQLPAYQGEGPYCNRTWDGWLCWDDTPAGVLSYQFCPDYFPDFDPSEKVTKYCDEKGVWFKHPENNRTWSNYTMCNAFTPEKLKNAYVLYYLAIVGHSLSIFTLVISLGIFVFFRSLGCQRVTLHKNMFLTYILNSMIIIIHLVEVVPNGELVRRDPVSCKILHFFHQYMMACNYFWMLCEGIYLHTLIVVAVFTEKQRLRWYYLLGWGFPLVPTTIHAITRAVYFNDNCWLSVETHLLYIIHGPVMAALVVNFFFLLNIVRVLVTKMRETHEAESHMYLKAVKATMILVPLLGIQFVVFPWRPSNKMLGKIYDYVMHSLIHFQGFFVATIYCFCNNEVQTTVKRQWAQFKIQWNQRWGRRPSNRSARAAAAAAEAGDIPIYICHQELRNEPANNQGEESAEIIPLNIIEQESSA
T1 sequence (looked up) 2: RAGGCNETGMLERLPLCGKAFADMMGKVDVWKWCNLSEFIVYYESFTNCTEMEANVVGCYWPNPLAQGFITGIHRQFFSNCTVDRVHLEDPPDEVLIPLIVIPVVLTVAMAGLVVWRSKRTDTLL

T2: human calcitonin receptor (human, UniProt P30988 25-474)
T2 sequence (looked up): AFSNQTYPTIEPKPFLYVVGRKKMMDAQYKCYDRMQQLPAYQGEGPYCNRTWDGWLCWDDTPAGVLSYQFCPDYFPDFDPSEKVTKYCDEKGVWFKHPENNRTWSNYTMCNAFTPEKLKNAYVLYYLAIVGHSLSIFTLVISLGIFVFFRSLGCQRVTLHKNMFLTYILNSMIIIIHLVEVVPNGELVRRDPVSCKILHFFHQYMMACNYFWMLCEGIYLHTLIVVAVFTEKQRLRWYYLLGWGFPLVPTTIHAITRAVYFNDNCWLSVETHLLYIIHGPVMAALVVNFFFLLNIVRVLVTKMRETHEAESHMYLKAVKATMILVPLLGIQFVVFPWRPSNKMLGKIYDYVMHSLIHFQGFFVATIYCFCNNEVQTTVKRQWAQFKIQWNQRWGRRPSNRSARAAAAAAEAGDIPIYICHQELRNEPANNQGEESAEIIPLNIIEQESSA


Experiments:
[1] = target: T1, human amylin receptor (amylin 3(a) …); test: cell-based or functional assay
[2] = target: T2, human calcitonin receptor; test: cell-based or functional assay

Binder | hAmylin-R funct. EC50 (pM) [1] | hCTR funct. EC50 (pM) [2] | Ratio hCT/hAmylin funct. [2]
K([γGlu-C20 diacid])CNTATCATQRLARFLRHSSPNFGAIPSSTNVGSNTY-NH2 (disulfide 2-7; N-terminus assumed; SMILES CC[C@H](C)[C@H](NC(=O)[C@H](C)NC(=O)CNC(=O)[C@H](Cc1ccccc1)NC(=O)[C@H](CC(N)=O)NC(=O)[C@@H]1CCCN1C(=O)[C@H](CO)NC(=O)[C@H](CO)NC(=O)[C@H](Cc1c[nH]cn1)NC(=O)[C@H](CCCNC(=N)N)NC(=O)[C@H](CC(C)C)NC(=O)[C@H](Cc1ccccc1)NC(=O)[C@H](CCCNC(=N)N)NC(=O)[C@H](C)NC(=O)[C@H](CC(C)C)NC(=O)[C@H](CCCNC(=N)N)NC(=O)[C@H](CCC(N)=O)NC(=O)[C@@H](NC(=O)[C@H](C)NC(=O)[C@@H]1CSSC[C@H](NC(=O)[C@@H](N)CCCCNC(=O)CC[C@H](NC(=O)CCCCCCCCCCCCCCCCCCC(=O)O)C(=O)O)C(=O)N[C@@H](CC(N)=O)C(=O)N[C@@H]([C@@H](C)O)C(=O)N[C@@H](C)C(=O)N[C@@H]([C@@H](C)O)C(=O)N1)[C@@H](C)O)C(=O)N1CCC[C@H]1C(=O)N[C@@H](CO)C(=O)N[C@@H](CO)C(=O)N[C@H](C(=O)N[C@@H](CC(N)=O)C(=O)N[C@H](C(=O)NCC(=O)N[C@@H](CO)C(=O)N[C@@H](CC(N)=O)C(=O)N[C@H](C(=O)N[C@@H](Cc1ccc(O)cc1)C(N)=O)[C@@H](C)O)C(C)C)[C@@H](C)O, also called compound 83) [N^ε1-[(4S)-4-carboxy-4-(19-carboxynonadecanoylamino)butanoyl]-[Arg14,Arg17,Pro21,Pro27]-h-amylin] | 405 pM | 16800 pM | 
K([γGlu-C20 diacid])CNTATCATQRLAEFLRHSSPNFGAIPSSTNVGPRTY-NH2 (disulfide 2-7; N-terminus assumed; SMILES CC[C@H](C)[C@H](NC(=O)[C@H](C)NC(=O)CNC(=O)[C@H](Cc1ccccc1)NC(=O)[C@H](CC(N)=O)NC(=O)[C@@H]1CCCN1C(=O)[C@H](CO)NC(=O)[C@H](CO)NC(=O)[C@H](Cc1c[nH]cn1)NC(=O)[C@H](CCCNC(=N)N)NC(=O)[C@H](CC(C)C)NC(=O)[C@H](Cc1ccccc1)NC(=O)[C@H](CCC(=O)O)NC(=O)[C@H](C)NC(=O)[C@H](CC(C)C)NC(=O)[C@H](CCCNC(=N)N)NC(=O)[C@H](CCC(N)=O)NC(=O)[C@@H](NC(=O)[C@H](C)NC(=O)[C@@H]1CSSC[C@H](NC(=O)[C@@H](N)CCCCNC(=O)CC[C@H](NC(=O)CCCCCCCCCCCCCCCCCCC(=O)O)C(=O)O)C(=O)N[C@@H](CC(N)=O)C(=O)N[C@@H]([C@@H](C)O)C(=O)N[C@@H](C)C(=O)N[C@@H]([C@@H](C)O)C(=O)N1)[C@@H](C)O)C(=O)N1CCC[C@H]1C(=O)N[C@@H](CO)C(=O)N[C@@H](CO)C(=O)N[C@H](C(=O)N[C@@H](CC(N)=O)C(=O)N[C@H](C(=O)NCC(=O)N1CCC[C@H]1C(=O)N[C@@H](CCCNC(=N)N)C(=O)N[C@H](C(=O)N[C@@H](Cc1ccc(O)cc1)C(N)=O)[C@@H](C)O)C(C)C)[C@@H](C)O) | 376 pM | 6380 pM | 17
K([γGlu-C20 diacid])CNTATCATQRLAEFLRHSSPNFGAIPSSTNVGPHTY-NH2 (disulfide 2-7) | 101 pM | 1450 pM | 14.4
K([γGlu-C20 diacid])CNTATCATQRLAEFLRHSSPNFGAIPSSTNVGSHTY-NH2 (disulfide 2-7; N-terminus assumed; SMILES CC[C@H](C)[C@H](NC(=O)[C@H](C)NC(=O)CNC(=O)[C@H](Cc1ccccc1)NC(=O)[C@H](CC(N)=O)NC(=O)[C@@H]1CCCN1C(=O)[C@H](CO)NC(=O)[C@H](CO)NC(=O)[C@H](Cc1c[nH]cn1)NC(=O)[C@H](CCCNC(=N)N)NC(=O)[C@H](CC(C)C)NC(=O)[C@H](Cc1ccccc1)NC(=O)[C@H](CCC(=O)O)NC(=O)[C@H](C)NC(=O)[C@H](CC(C)C)NC(=O)[C@H](CCCNC(=N)N)NC(=O)[C@H](CCC(N)=O)NC(=O)[C@@H](NC(=O)[C@H](C)NC(=O)[C@@H]1CSSC[C@H](NC(=O)[C@@H](N)CCCCNC(=O)CC[C@H](NC(=O)CCCCCCCCCCCCCCCCCCC(=O)O)C(=O)O)C(=O)N[C@@H](CC(N)=O)C(=O)N[C@@H]([C@@H](C)O)C(=O)N[C@@H](C)C(=O)N[C@@H]([C@@H](C)O)C(=O)N1)[C@@H](C)O)C(=O)N1CCC[C@H]1C(=O)N[C@@H](CO)C(=O)N[C@@H](CO)C(=O)N[C@H](C(=O)N[C@@H](CC(N)=O)C(=O)N[C@H](C(=O)NCC(=O)N[C@@H](CO)C(=O)N[C@@H](Cc1c[nH]cn1)C(=O)N[C@H](C(=O)N[C@@H](Cc1ccc(O)cc1)C(N)=O)[C@@H](C)O)C(C)C)[C@@H](C)O) | 425 pM | 5580 pM | 13.1
K([γGlu-C20 diacid])CNTATCATQRLAHFLRHSSPNFGAIPSSTNVGRNTY-NH2 (disulfide 2-7; N-terminus assumed; SMILES CC[C@H](C)[C@H](NC(=O)[C@H](C)NC(=O)CNC(=O)[C@H](Cc1ccccc1)NC(=O)[C@H](CC(N)=O)NC(=O)[C@@H]1CCCN1C(=O)[C@H](CO)NC(=O)[C@H](CO)NC(=O)[C@H](Cc1c[nH]cn1)NC(=O)[C@H](CCCNC(=N)N)NC(=O)[C@H](CC(C)C)NC(=O)[C@H](Cc1ccccc1)NC(=O)[C@H](Cc1c[nH]cn1)NC(=O)[C@H](C)NC(=O)[C@H](CC(C)C)NC(=O)[C@H](CCCNC(=N)N)NC(=O)[C@H](CCC(N)=O)NC(=O)[C@@H](NC(=O)[C@H](C)NC(=O)[C@@H]1CSSC[C@H](NC(=O)[C@@H](N)CCCCNC(=O)CC[C@H](NC(=O)CCCCCCCCCCCCCCCCCCC(=O)O)C(=O)O)C(=O)N[C@@H](CC(N)=O)C(=O)N[C@@H]([C@@H](C)O)C(=O)N[C@@H](C)C(=O)N[C@@H]([C@@H](C)O)C(=O)N1)[C@@H](C)O)C(=O)N1CCC[C@H]1C(=O)N[C@@H](CO)C(=O)N[C@@H](CO)C(=O)N[C@H](C(=O)N[C@@H](CC(N)=O)C(=O)N[C@H](C(=O)NCC(=O)N[C@@H](CCCNC(=N)N)C(=O)N[C@@H](CC(N)=O)C(=O)N[C@H](C(=O)N[C@@H](Cc1ccc(O)cc1)C(N)=O)[C@@H](C)O)C(C)C)[C@@H](C)O, also called compound 85) | 146 pM | 3880 pM | 
K([γGlu-C20 diacid])CNTATCATQRLANFLRHSSPNFGAIPSSTNVGRNTY-NH2 (disulfide 2-7; N-terminus assumed; SMILES CC[C@H](C)[C@H](NC(=O)[C@H](C)NC(=O)CNC(=O)[C@H](Cc1ccccc1)NC(=O)[C@H](CC(N)=O)NC(=O)[C@@H]1CCCN1C(=O)[C@H](CO)NC(=O)[C@H](CO)NC(=O)[C@H](Cc1c[nH]cn1)NC(=O)[C@H](CCCNC(=N)N)NC(=O)[C@H](CC(C)C)NC(=O)[C@H](Cc1ccccc1)NC(=O)[C@H](CC(N)=O)NC(=O)[C@H](C)NC(=O)[C@H](CC(C)C)NC(=O)[C@H](CCCNC(=N)N)NC(=O)[C@H](CCC(N)=O)NC(=O)[C@@H](NC(=O)[C@H](C)NC(=O)[C@@H]1CSSC[C@H](NC(=O)[C@@H](N)CCCCNC(=O)CC[C@H](NC(=O)CCCCCCCCCCCCCCCCCCC(=O)O)C(=O)O)C(=O)N[C@@H](CC(N)=O)C(=O)N[C@@H]([C@@H](C)O)C(=O)N[C@@H](C)C(=O)N[C@@H]([C@@H](C)O)C(=O)N1)[C@@H](C)O)C(=O)N1CCC[C@H]1C(=O)N[C@@H](CO)C(=O)N[C@@H](CO)C(=O)N[C@H](C(=O)N[C@@H](CC(N)=O)C(=O)N[C@H](C(=O)NCC(=O)N[C@@H](CCCNC(=N)N)C(=O)N[C@@H](CC(N)=O)C(=O)N[C@H](C(=O)N[C@@H](Cc1ccc(O)cc1)C(N)=O)[C@@H](C)O)C(C)C)[C@@H](C)O, also called compound 79) [N^ε1-[(4S)-4-carboxy-4-(19-carboxynonadecanoylamino)butanoyl]-[Arg17,Pro21,Pro27,Arg34]-h-amylin] | 161 pM | 3940 pM | 
K([γGlu-C20 diacid])CNTATCATQRLADFLRHSSPNFGAIPSSTNVGPRTY-NH2 (disulfide 2-7; N-terminus assumed; SMILES CC[C@H](C)[C@H](NC(=O)[C@H](C)NC(=O)CNC(=O)[C@H](Cc1ccccc1)NC(=O)[C@H](CC(N)=O)NC(=O)[C@@H]1CCCN1C(=O)[C@H](CO)NC(=O)[C@H](CO)NC(=O)[C@H](Cc1c[nH]cn1)NC(=O)[C@H](CCCNC(=N)N)NC(=O)[C@H](CC(C)C)NC(=O)[C@H](Cc1ccccc1)NC(=O)[C@H](CC(=O)O)NC(=O)[C@H](C)NC(=O)[C@H](CC(C)C)NC(=O)[C@H](CCCNC(=N)N)NC(=O)[C@H](CCC(N)=O)NC(=O)[C@@H](NC(=O)[C@H](C)NC(=O)[C@@H]1CSSC[C@H](NC(=O)[C@@H](N)CCCCNC(=O)CC[C@H](NC(=O)CCCCCCCCCCCCCCCCCCC(=O)O)C(=O)O)C(=O)N[C@@H](CC(N)=O)C(=O)N[C@@H]([C@@H](C)O)C(=O)N[C@@H](C)C(=O)N[C@@H]([C@@H](C)O)C(=O)N1)[C@@H](C)O)C(=O)N1CCC[C@H]1C(=O)N[C@@H](CO)C(=O)N[C@@H](CO)C(=O)N[C@H](C(=O)N[C@@H](CC(N)=O)C(=O)N[C@H](C(=O)NCC(=O)N1CCC[C@H]1C(=O)N[C@@H](CCCNC(=N)N)C(=O)N[C@H](C(=O)N[C@@H](Cc1ccc(O)cc1)C(N)=O)[C@@H](C)O)C(C)C)[C@@H](C)O) | 146 pM | 3640 pM | 24.9
